# Measured values: article PMC10747570
# Target: Hibiscus green spot virus movement protein BMB2 (Hibiscus green spot virus)
# Assay: FRET or BRET; FRET-FLIM: GFP fluorescence lifetime measured in PAMBs of N. benthamiana leaf cells coexpressing BMB2-GFP (donor) and BMB2-mRFP (acceptor), 3 dpi; control without acceptor: BMB2-GFP with non-fused BMB2
substance,measurement,value
Hibiscus green spot virus movement protein BMB2 (natural protein),FRET efficiency,69.8%
same,GFP excited-state lifetime with the acceptor,0.74 ns
